From paper PMC5426795, “Controlling transferrin receptor trafficking with GPI-valence in bloodstream stage African trypanosomes” (PLoS Pathogens, 2017)

What was measured:
Test in all cases: native gel or EMSA; BN-PAGE (4-16% gradient) of 1% dodecylmaltoside extracts of cell lines cultured 24 hr with tetracycline, without or with 4 M urea; immunoblot with anti-TfR or anti-VSG221
[1] = target: ESAG6, GPI-anchored subunit of the transferrin receptor (TfR) (T. brucei brucei (Lister 427))
[2] = target: ESAG7, subunit of the transferrin receptor (TfR) without GPI anchor (T. brucei brucei (Lister 427))
[3] = target: the molecule itself

Molecule: ESAG6, GPI-anchored subunit of the transferrin receptor (TfR) (natural protein)
- stoichiometry N [1]: 2

Molecule: ESAG7, subunit of the transferrin receptor (TfR) without GPI anchor (natural protein)
- stoichiometry N [2]: 2

B1: variant surface glycoprotein VSG221 (MITat1.2) (natural protein)
chain: AAEKGFKQAFWQPLCQVSEELDDQPKGALFTLQAAASKIQKMRDAALRASIYAEINHGTNRAKAAVIVANHYAMKADSGLEALKQTLSSQEVTATATASYLKGRIDEYLNLLLQTKESGTSGCMMDTSGTNTVTKAGGTIGGVPCKLQLSPIQPKRPAATYLGKAGYVGLTRQADAANNFHDNDAECRLASGHNTNGLGKSGQLSAAVTMAAGYVTVANSQTAVTVQALDALQEASGAAHQPWIDAWKAKKALTGAETAEFRNETAGIAGKTGVTKLVEEALLKKKDSEASEIQTELKKYFSGHENEQWTAIEKLISEQPVAQNLVGDNQPTKLGELEGNAKLTTILAYYRMETAGKFEVLTQKHKPAESQQQAAETEGSCNKKDQNECKSPCKWHNDAENKKCTLDKEEAKKVADETAKDGKTGNTNTTGSS
modifications: GPI anchor, C-terminal
notes: variant surface glycoprotein VSG221 of MITat1.2, T. brucei brucei Lister 427; Internal control of the BN-PAGE; also called dVSG; mVSG; source: endogenous, bloodstream form T. brucei brucei Lister 427 (MITat1.2), dodecylmaltoside extract
- stoichiometry N [3]: 2
